Assays:
[1] = tested on: GFP N-terminal phosphorylation mutant 1MRKGSCLF; settings: scale: relative to the endogenous site HKFSV of Aequorea GFP
[2] = tested on: GFP N-terminal phosphorylation mutant 1MRKGSLLF; settings: scale: relative to the endogenous site HKFSV of Aequorea GFP
[3] = tested on: GFP N-terminal phosphorylation mutant 1MRRDSCLF; settings: scale: relative to the endogenous site HKFSV of Aequorea GFP
[4] = tested on: GFP N-terminal phosphorylation mutant 1MRRESLLF; settings: scale: relative to the endogenous site HKFSV of Aequorea GFP
[5] = tested on: GFP N-terminal phosphorylation mutant 1MSKRRDSL; settings: scale: relative to the endogenous site HKFSV of Aequorea GFP
[6] = tested on: GFP N-terminal phosphorylation mutant 1MSRRDSCF; settings: scale: relative to the endogenous site HKFSV of Aequorea GFP
[7] = tested on: GFP phosphorylation mutant 155KRKSGI; settings: scale: relative to the endogenous site HKFSV of Aequorea GFP
[8] = tested on: GFP phosphorylation mutant 172RRGSV; settings: scale: relative to the endogenous site HKFSV of Aequorea GFP
[9] = tested on: GFP phosphorylation mutant 214KRDSM
[10] = tested on: GFP phosphorylation mutant 25RRFSV; settings: scale: relative to the endogenous site HKFSV of Aequorea GFP
[11] = tested on: GFP phosphorylation mutant 68RRFSA; settings: scale: relative to the endogenous site HKFSV of Aequorea GFP
[12] = tested on: wild type Aequorea green fluorescent protein
[13] = scale: relative to the endogenous site HKFSV of Aequorea GFP

protein kinase A catalytic subunit showed a Relative rates of phosphorylation [1] of 5.1, a Relative rates of phosphorylation [2] of 1.6 and a Relative rates of phosphorylation [3] of 3.7. It also gave a Relative rates of phosphorylation [4] of 3, a Relative rates of phosphorylation [5] of 5.5 and a Relative rates of phosphorylation [6] of 2.1. For the same substance, the Relative rates of phosphorylation [7] was 2.5, the Relative rates of phosphorylation [8] was 1.57 and the “kinetics of phosphorylation using gamma-32P-labeled ATP” value [9] was “the site is poorly phosphorylated by protein kinase A”. For the same substance, the Relative rates of phosphorylation [9, 13] was 1.88, the Relative rates of phosphorylation [10] was 1.75 and the Relative rates of phosphorylation [11] was 0.6. For the same substance, the phosphorylation in vitro [12] was “can be phosphorylated by protein kinase A in vitro with relatively slow kinetics” and the Relative rates of phosphorylation [12, 13] was 1.
